{"source": "IntAct's records for PubMed 17563362", "parents": {"B1": {"name": "CAP-Gly domain-containing linker protein 1 (Homo sapiens), P30622-2 (parent)", "chain": "MSMLKPSGLKAPTKILKPGSTALKTPTAVVAPVEKTISSEKASSTPSSETQEEFVDDFRVGERVWVNGNKPGFIQFLGETQFAPGQWAGIVLDEPIGKNDGSVAGVRYFQCEPLKGIFTRPSKLTRKVQAEDEANGLQTTPASRATSPLCTSTASMVSSSPSTPSNIPQKPSQPAAKEPSATPPISNLTKTASESISNLSEAGSIKKGERELKIGDRVLVGGTKAGVVRFLGETDFAKGEWCGVELDEPLGKNDGAVAGTRYFQCQPKYGLFAPVHKVTKIGFPSTTPAKAKANAVRRVMATTSASLKRSPSASSLSSMSSVASSVSSRPSRTGLLTETSSRYARKISGTTALQEALKEKQQHIEQLLAERDLERAEVAKATSHVGEIEQELALARDGHDQHVLELEAKMDQLRTMVEAADREKVELLNQLEEEKRKVEDLQFRVEEESITKGDLEVATVSEKSRIMELEKDLALRVQEVAELRRRLESNKPAGDVDMSLSLLQEISSLQEKLEVTRTDHQREITSLKEHFGAREETHQKEIKALYTATEKLSKENESLKSKLEHANKENSDVIALWKSKLETAIASHQQAMEELKVSFSKGLGTETAEFAELKTQIEKMRLDYQHEIENLQNQQDSERAAHAKEMEALRAKLMKVIKEKENSLEAIRSKLDKAEDQHLVEMEDTLNKLQEAEIKVKELEVLQAKCNEQTKVIDNFTSQLKATEEKLLDLDALRKASSEGKSEMKKLRQQLEAAEKQIKHLEIEKNAESSKASSITRELQGRELKLTNLQENLSEVSQVKETLEKELQILKEKFAEASEEAVSVQRSMQETVNKLHQKEEQFNMLSSDLEKLRENLADMEAKFREKDEREEQLIKAKEKLENDIAEIMKMSGDNSSQLTKMNDELRLKERDVEELQLKLTKANENASFLQKSIEDMTVKAEQSQQEAAKKHEEEKKELERKLSDLEKKMETSHNQCQELKARYERATSETKTKHEEILQNLQKTLLDTEDKLKGAREENSGLLQELEELRKQADKAKAAQTAEDAMQIMEQMTKEKTETLASLEDTKQTNAKLQNELDTLKENNLKNVEELNKSKELLTVENQKMEEFRKEIETLKQAAAQKSQQLSALQEENVKLAEELGRSRDEVTSHQKLEEERSVLNNQLLEMKKRESKFIKDADEEKASLQKSISITSALLTEKDAELEKLRNEVTVLRGENASAKSLHSVVQTLESDKVKLELKVKNLELQLKENKRQLSSSSGNTDTQADEDERAQESQIDFLNSVIVDLQRKNQDLKMKVEMMSEAALNGNGDDLNNYDSDDQEKQSKKKPRLFCDICDCFDLHDTEDCPTQAQMSEDPPHSTHHGSRGEERPYCEICEMFGHWATNCNDDETF"}}, "data": [{"variants_of": "B1", "conditions": "with tba1a_human TUBA1A", "values": [{"variant": "N253D", "effect of a mutation on the interaction": "decreasing interaction strength"}, {"variant": "N253A", "effect of a mutation on the interaction": "decreasing interaction strength"}]}, {"variants_of": "B1", "conditions": "with mare1_human MAPRE1, Q15691", "values": [{"variant": "K252A", "effect of a mutation on the interaction": "disrupting interaction strength"}, {"variant": "K277A", "effect of a mutation on the interaction": "decreasing interaction strength"}, {"variant": "K224A", "effect of a mutation on the interaction": "disrupting interaction strength"}]}]}
